Data set [1] deals with the molecule itself. Put plainly: crystal structure; His6-VapB:VapC complex, 7 mg/ml; crystals in 0.1 M Bis-Tris pH 5.5, 1 M ammonium sulfate, 0.5% (v/v) PEG 3350, 19 °C; 2.7 Å; four copies of each protein in the asymmetric unit (VapB4C4).
Data set [2] concerns the molecule itself. Put plainly: cross-linking; purified VapBC complex 1 mg/ml in 100 mM sodium borate pH 9.1 with dimethyl superimidate (DMSI), aliquots after 5-120 min, 15% Coomassie-stained SDS-PAGE.
Data set [3] addresses T1, VapBC complex (VapB:His6-VapC), hetero-octamer VapB4C4 (Shigella flexneri (plasmid pMYSH6000), UniProt O06663;O06662 1-75;1-132).
T1 sequence 1: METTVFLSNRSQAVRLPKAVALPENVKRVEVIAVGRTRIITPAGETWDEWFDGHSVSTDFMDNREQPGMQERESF
T1 sequence 2: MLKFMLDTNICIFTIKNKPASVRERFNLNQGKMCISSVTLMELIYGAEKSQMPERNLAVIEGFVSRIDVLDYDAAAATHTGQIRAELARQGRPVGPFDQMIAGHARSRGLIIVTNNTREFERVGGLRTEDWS
In words: EMSA; single shift, highest affinity site; 2.5 ng/ul VapBC, 0.1 mg/ml salmon sperm DNA. As to conditions: protein: recombinant; tags: His6 on VapC; chain copies: 4;4; label: 5'-32P on SF-EMSA2-f; blunt. On the technique in general: In EMSA bound probe runs differently from free probe, usually more slowly.

B1: Shigella flexneri VapB antitoxin (His6-VapB) (natural protein, UniProt O06663 1-75, looked up)
chain: T1 sequence 1
notes: VapB antitoxin of the vapBC locus of the Shigella flexneri 2a virulence plasmid pMYSH6000; gene optimized for expression; No cleavage of the tag is described; In the assembly four copies of VapB stand with four of VapC (VapB4C4)
Turning to B1, the stoichiometry N (usually the number of molecules, sites or subunits per partner or assembly) was determined as 2 in data set [1] and 4 in data set [2].

B2: DNA III (dsDNA)
DNA 1: ATAAACGTATATCCCTTTGACATATCCCGG
DNA 2: CCGGGATATGTCAAAGGGATATACGTTTAT
On to B2, for which the binding result in data set [3] was “binds”.

B3: Shigella flexneri VapC toxin (MvpT) (natural protein)
chain: T1 sequence 2
notes: Untagged in this construct, purified through His6-VapB; also called PIN domain
For the molecule B3, the “stoichiometry N” value in data set [2] amounted to 4.

(Values after PMC3384007, “Crystal Structure of the VapBC Toxin–Antitoxin Complex from Shigella flexneri Reveals a Hetero-Octameric DNA-Binding Assembly” (Journal of Molecular Biology, 2011).)
